Results: the RNAGym collection of RNA variant scans (doi:10.7554/elife.80360)

B1: CPEB3 Ribozyme (parent)
chain: GGGGGCCACAGCAGAAGCGUUCACGUCGCGGCCCCUGUCAGAUUCUGGUGAAUCUGCGAAUUCUGCUGU

Variants of: B1
Experiment: self-cleavage, relative activity (ratio to wild type); higher = more cleavage; co-transcriptional

Going from GGGGGCCACAGCAGAAGCGUGCACGUCGCGGCCCCUGUCAGAUUCUGGUGAGUCUGCGAAUUCUGCUGU to GGGGGCCACAGCAGAAGCGUGCACGUCGCGGCCCCUGUCAGAUUCUGGUGAUUCUGCGAAUUCUGCUGU, the self-cleavage falls from 0.615 to 0.608.

Compared with GGGGGCCACAGCAGAAGCGUGCACCUCGCGGCCCCUGUCAGAUUCUGGUGAAUCUGCGAAUUCUGCUGU, GGGGGCCACAGCAGAAGCGUGCACUUCGCGGCCCCUGUCAGAUUCUGGUGAAUCUGCGAAUUCUGCUGU is higher in self-cleavage: 0.185 for the first, 0.187 for the second.

Compared with GGGGGCCACAGCAGAAGCGUGCACGUCGGGGCCCCUGUCAGAUUCUGGUGAAUCUGCGAAUUCUGCUGU, GGGGGCCACAGCAGAAGCGUGCACGUCGUGGCCCCUGUCAGAUUCUGGUGAAUCUGCGAAUUCUGCUGU is higher in self-cleavage: 0.158 for the first, 0.166 for the second.

Compared with GGGGGCCACAGCAGAAGCGUCCACGUCGCGGCCCCUGCCAGAUUCUGGUGAAUCUGCGAAUUCUGCUGU, GGGGGCCACAGCAGAAGCGUCCACGUCGCGGCCCCUGGCAGAUUCUGGUGAAUCUGCGAAUUCUGCUGU is lower in self-cleavage: 0.808 for the first, 0.432 for the second.

First: GGGGGCCACAGCAGAAGCGUGCACGUCGCGGCCCCUGUGAGAUUCUGGUGAAUCUGCGAAUUCUGCUGU
Second: GGGGGCCACAGCAGAAGCGUGCACGUCGCGGCCCAUGUCAGAUUCUGGUGAAUCUGCGAAUUCUGCUGU
The self-cleavage of the first is higher: 0.865 for the first, 0.13 for the second.

Going from GGGGGCCACAGCAGAAGCGUGCACGUCUCGGCCCCUGUCAGAUUCUGGUGAAUCUGCGAAUUCUGCUGU to GGGGGCCACAGCAGAAGCGUCCACGUCGCGGCCCCUGUCAGAGUCUGGUGAAUCUGCGAAUUCUGCUGU, the self-cleavage rises from 0.0808 to 0.682.

First: GGGGGCCACAGCAGAAGCGUCCACGUCGCGGCCCCUGUCAGAAUCUGGUGAAUCUGCGAAUUCUGCUGU
Second: GGGGGCCACAGCAGAAGCGUGCACGUCGCGGCCCCUGUCAGAUUCUGGUGAAUCUGUGAAUUCUGCUGU
The self-cleavage of the first is higher: 0.771 for the first, 0.253 for the second.

Going from GGGGGCCACAGCAGAAGCGUGCACGUCGCGGCCCCUGUCAGAUUCUGGUGAAUCUGAGAAUUCUGCUGU to GGGGGCCACAGCAGAAGCGUGCACGUCGCGGGCCCUGUCAGAUUCUGGUGAAUCUGCGAAUUCUGCUGU, the self-cleavage falls from 0.22 to 0.189.

First: GGGGGCCACAGCAGAAGCGUGCACGUCGCGGUCCCUGUCAGAUUCUGGUGAAUCUGCGAAUUCUGCUGU
Second: GGGGGCCACAGCAGAAGCGUGCACGUCGCGGACCCUGUCAGAUUCUGGUGAAUCUGCGAAUUCUGCUGU
The self-cleavage of the first is higher: 0.609 for the first, 0.246 for the second.

Compared with GGGGGCCACAGCAGAAGCGUGCAAGUCGCGGCCCCUGUCAGAUUCUGGUGAAUCUGCGAAUUCUGCUGU, GGGGGCCACAGCAGAAGCGUGCAUGUCGCGGCCCCUGUCAGAUUCUGGUGAAUCUGCGAAUUCUGCUGU is lower in self-cleavage: 0.106 for the first, 0.103 for the second.

Compared with GGGGGCCACAGCAGAAGCGUGCACGUCGCGGCCCCUGUCAGUUUCUGGUGAAUCUGCGAAUUCUGCUGU, GGGGGCCACAGCAGAAGCGUGCACGUCGCGGCCCCUGUCAGCUUCUGGUGAAUCUGCGAAUUCUGCUGU is lower in self-cleavage: 0.503 for the first, 0.303 for the second.

Going from GGGGGCCACAGCAGAAGCGUCCACGUCGCGGCCCCUGUCAGAUUCUGGUGAAUCUGCGAAUUCGGCUGU to GGGGGCCACAGCAGAAGCGUCCACGUCGCGGCCCCUGUCAGAUUCUGGUGAAUCUGCGAAUUCCGCUGU, the self-cleavage falls from 0.75 to 0.609.

First: GGGGGCCACAGCAGAAGCGUGCACGUCGCGGCCCCUGUCAGAUUCUGGUGAAUGUGCGAAUUCUGCUGU
Second: GGGGGCCACAGCAGAAGCGUGCACGUCGCGGCCCCUGUCAGAUUCUGGUGAAUUUGCGAAUUCUGCUGU
The self-cleavage of the first is lower: 0.423 for the first, 0.591 for the second.

Compared with GGGGGCCACAGCAGAAGCGUCCACGUCGCGGCCCCUGUCAGAUUCUGGUGAAUCUGCGAAUGCUGCUGU, GGGGGCCACAGCAGAAGCGUCCACGUCGCGGCCCCUGUCAGAUUCUGGUGAAUCUGCGAAUCCUGCUGU is lower in self-cleavage: 0.614 for the first, 0.516 for the second.

Compared with GGGGGCCACAGCAGAAGCGUGCUCGUCGCGGCCCCUGUCAGAUUCUGGUGAAUCUGCGAAUUCUGCUGU, GGGGGCCACAGCAGAAGCGUGCCCGUCGCGGCCCCUGUCAGAUUCUGGUGAAUCUGCGAAUUCUGCUGU is lower in self-cleavage: 0.483 for the first, 0.379 for the second.

Going from GGGGGCCACAGCAGAAGCGUGCACGUCGCGACCCCUGUCAGAUUCUGGUGAAUCUGCGAAUUCUGCUGU to GGGGGCCACAGCAGAAGCGUGCACGUCGCGUCCCCUGUCAGAUUCUGGUGAAUCUGCGAAUUCUGCUGU, the self-cleavage rises from 0.175 to 0.24.

Going from GGGGGCCACAGCAGAAGCGUCCACGUCGCGGCCCCUGUCAGAUUCUGGUGAAUCUGCGAAGUCUGCUGU to GGGGGCCACAGCAGAAGCGUCCACGUCGCGGCCCCUGUCAGAUUCUGGUGAAUCUGCGAACUCUGCUGU, the self-cleavage falls from 0.7 to 0.572.

First: GGGGGCCACAGCAGAAGCGUGCACGUCGCGGCCCCUGUCAGAUUCUGGUGUAUCUGCGAAUUCUGCUGU
Second: GGGGGCCACAGCAGAAGCGUGCACGUCGCGGCCCCUGUCAGAUUCUGGUGCAUCUGCGAAUUCUGCUGU
The self-cleavage of the first is lower: 0.497 for the first, 0.509 for the second.

Going from GGGGGCCACAGCAGAAGCGUGCACGUCGCGGCCCCUGUCAGAUUCUGGUGGAUCUGCGAAUUCUGCUGU to GGGGGCCACAGCAGAAGCGUGCACGUCGCGGCCCCUGUCAGAUUCUGGUGAAUCUGCGAAUUCUGGUGU, the self-cleavage falls from 0.54 to 0.219.

With GGGGGCCACAGCAGAAGCGUGCACGUCGCGGCCCCUGUCAGAUUCUGGUGAAUCUGCGAAUUCUGUUGU the self-cleavage was 0.529.
